# Reference: US9657059B2, “Immune system modulators” (Canimguide Therapeutics AB, priority 2013, dated 2017)
# Target: P3028 (Homo sapiens, UniProt P02768)
# Assay: PEPSCAN rampo assay: binding of P3028 to support-bound peptides, sandwich ELISA
# Conditions: binding of P3028 to peptide on solid phase
# From the text: Based on the ability of P28R to bind the P3028 sequence/structure, unblock the LFA-1 receptor, and ameliorate the P3028 sequence/structure-dependent immunosuppression, P28R was used as a template compound to identify additional compounds that bind to and sequester P3028. Variants of the P28R structure were synthesized, and tested for the ability to bind P3028 using PEPSCAN technology (see Example 12). A library of peptides that include each genetically-coded amino acid substitution at each amino acid position of P28R (i.e., 19 substitutions for each position) was synthesized. Each peptide was affixed to a support pin, and the peptide library was incubated with P3028. The binding of the candidate inhibitors to P3028 was detected by a sandwich ELISA, where a rabbit anti-mouse peroxidase (rampo) secondary antibody was employed (see Example 12). The binding of each peptide was then assigned a rampo score (see FIG. 27). Peptide P28R had rampo values ranging between about 262 and 460 with a mean value of 370. In some embodiments, the immunoregulatory peptide inhibitor as disclosed herein, is selected for a desired P3028 binding rampo score. In some embodiments, the desired P3028 binding rampo score is greater than or equal to the rampo score of P28R. It is also contemplated that some peptides that bind to P3028 with less affinity than P28R have therapeutic application. Some peptides with binding affinities that are less than P28R, for example, may modulate signal transduction events differently than P28R by virtue of the fact that the affinity to P3028 is less. […] Accordingly, contemplated embodiments include peptides that bind with any affinity to P3028 (e.g., any one or more of the peptides provided in Table 5.1, preferably peptides that modulate the immune system (e.g., modulate, upregulate or down regulate a marker of the immune system or immunosuppression, such as reducing a P3028-mediated inhibition of immune cell proliferation, spreading, migration, or NK-cell cytotoxicity).
# It is contemplated that inhibitors of any one or more of the peptides listed in Tables 1-4 can comprise modifications of the P28R (SEQ ID NO: 2) or P28 core (SEQ ID NO: 62) sequence, and further can be useful for reducing inhibition of the LFA-1 receptor, or for stimulating immune cells. To identify modification to inhibitor peptides in accordance with some embodiments herein, positional scan data was used to study the influence of substitution of different types of amino acids in each position of P28R (SEQ ID NO: 2) on the binding of P3028 (SEQ ID NO: 185). Each amino acid in the peptide sequence of P28R (SEQ ID NO: 2) was exchanged with all of the naturally occurring amino acids, and binding of P3028 (SEQ ID NO: 185) to each peptide on a solid phase chip was assessed (see, e.g. Example 36). A number of optional modifications to P28R in accordance with embodiments herein are summarized in Tables 5.3, 5.4, 5.5, 5.6, and 13. Optionally, an inhibitor peptide in accordance with some embodiments herein can comprise one or more of the modifications of Table 5.3 or Table 13. Optionally, an inhibitor peptide comprises a central core of positions 2, 5-11, and 15 as provided in Table 5.3, and the remaining position are omitted or substituted with substantially any amino acid. Optionally, an inhibitor peptide comprises a central core of positions K2, T5-S11, and E15 of SEQ ID NO: 2, and the remaining position are omitted or substituted with substantially any amino acid.
# Embodiments of the invention also include immunoregulatory peptide inhibitors that have a specific affinity to P3028 sequences or structures. In some embodiments, the immunoregulatory peptide inhibitors have specific affinity to P3028 sequences or structures as measured by a rampo assay in which the immunoregulatory peptide inhibitors are affixed to a solid phase, P3028 is added, and the enzymatic activity of a rampo secondary antibody is measured so as to detect binding (see Example 12). […]
row,Substance,RAMPO Score
1,391 (KKLDTFFVKLSLFTER) [compound 391],366
2,396 (KKLDTFFVKLSLFTER) [compound 396],460
3,398 (KKLDTFFVKLSLFTER) [compound 398],445
4,399 (KKLDTFFVKLSLFTER) [compound 399],442
5,400 (KKLDTFFVKLSLFTER) [compound 400],437
6,403 (KKLDTFFVKLSLFTER) [compound 403],428
7,406 (KKLDTFFVKLSLFTER) [compound 406],424
8,408 (KKLDTFFVKLSLFTER) [compound 408],414

# More lines, now with the values ahead:
row,RAMPO Score,Substance
1,402,414 (KKLDTFFVKLSLFTER) [compound 414]
2,377,427 (KKLDTFFVKLSLFTER) [compound 427]
3,375,428 (KKLDTFFVKLSLFTER) [compound 428]
4,371,430 (KKLDTFFVKLSLFTER) [compound 430]
5,348,442 (KKLDTFFVKLSLFTER) [compound 442]
6,319,476 (KKLDTFFVKLSLFTER) [compound 476]
7,308,487 (KKLDTFFVKLSLFTER) [compound 487]
8,260,516 (KKLDTFFVKLSLFTER) [compound 516]

# Test system: PBMCs from a healthy control
# Assay: PBMC activation (CD69, CD71) by flow cytometry in RPMI plus 10% human AB serum
# Format: cell-based
# Conditions: 40 μg/mL; 24 hours
# Protocol: FIG. 41 is a series of graphs illustrating effects of modified peptides on activation of PBMCs from healthy control person. PBMCs were incubated with the peptides (40 μg/mL) for 24 hours in RPMI plus 10% human AB serum. Activation is determined as percentage of cells with enhanced marker CD69 using flow cytometry. FIG. 41A illustrates results of two experiments (410 and 412) performed for each peptide. FIG. 41B illustrates results of two experiments (414 and 416) performed for each peptide.
# FIG. 42 is a series of graphs illustrating effects of the full length peptide P28R and the 6 amino acid central sequence (32230, FFVKLS, SEQ ID NO: 62) in culture medium containing normal human AB serum. Activation is determined as percentage of cells with enhanced marker CD69 or CD71 using flow cytometry. PBMCs were incubated with the peptides (40 μg/mL) for 24 hours in RPMI plus 10% human AB serum. FIG. 42A illustrates the results of two experiments (420 and 422) performed for each peptide. FIG. 42B illustrates the results of two experiments (424 and 426) performed for each peptide.
# FIG. 46 is a series of graphs illustrating Effect of modified peptides on activation of PBMCs from healthy control person. […] PBMCs were incubated with the peptides (40 μg/mL) for 48 hours in RPMI plus 10% human AB serum.
# Based on the positional scan data, it is contemplated that substitutions of SEQ ID NO: 2 can be useful in accordance with some embodiments herein for binding P3028, de-blocking the LFA-1 receptor from P3028-mediated inhibition (e.g. displacing bound P3028 peptide and P3028-structure containing molecules from the LFA-1 receptor), and/or stimulating immune cells. The activity of peptide P28R (SEQ ID NO: 2) and modifications of P28R was studied in a human ex vivo model using PBMCs from a healthy control human in short term cultures, and with PBMC activation measured as a percentage of cells with enhanced CD69 (see Example 37).
# As P28R (SEQ ID NO: 2) can bind to P3028 and stimulate PBMC's from healthy controls in short term cultures, for example when in a culture medium comprising RPMI plus 10% normal human AB serum (see Example 37), it is contemplated that truncations of P28R in accordance with some embodiments herein can be useful for binding to inhibitors of any one or more of the peptides listed in Tables 1-4. Truncations of P28R were assessed for their ability to activate PBMC's (see Example 38). PBMCs were incubated with the peptides (40 μg/mL) for 24 hours in RPMI plus 10% human AB serum. PBMC activation was measured as percent cells with enhanced expression of either CD69 (FIG. 42A) or CD71 (FIG. 42B) using flow cytometry. […] However, PBMCs were also incubated with the peptides in cancer sera from dogs, or in caner sera from human cancer patients (see FIG. 43). […] As such, it is contemplated that in accordance with some embodiments herein, P28R, P28 core, or combinations of these peptides are useful for stimulating immune cells in the serum of a subject that has cancer.
# Effects of modified peptides on the activation of PBMCs from a healthy control person were assessed (see Example 41). PBMCs were incubated with the peptides (40 μg/mL) for 48 hours in RPMI plus 10% human AB serum, and PBMC activation was determined by flow cytometry based on the percentage of cells with enhanced marker CD69 or CD71. Peptides P28R (SEQ ID NO: 2), P28 core (peptide 32230) (SEQ ID NO: 62), 32251 ([…]) (SEQ ID NO: 592), 32814 ([…]) (SEQ ID NO: 586), 32815 ([…]) (SEQ ID NO: 595), 32665 ([…]) (SEQ ID NO: 593), and 32819 ([…](C(PEG24))) (SEQ ID NO: 594) were tested. […] Accordingly, it is contemplated herein that
row,Substance,"PBMC activation, cells with enhanced CD69"
1,KKLDTFFVDLSLFTER [compound 31138],did not stimulate
2,KKLDTFFVKLSLFTFR [compound 30685],did not stimulate
3,KKLDTFFVNLSLFTER [compound 31136],did not stimulate
4,KSLDTFFVKLSLFTER [compound 30864],did not stimulate

# Target: P3028 (SEQ ID NO: 185) (Homo sapiens, UniProt P02768)
# Assay: PEPSCAN (rampo) ELISA: binding of His-tagged P3028 to P28R variants on chip
# Conditions: binding of His-tagged P3028 0.5 μg/mL to chip-bound peptide, OD405 raw value
# Protocol: Based on the structure of peptide P28R, additional peptides were identified that bind to P3028. The additional binders included deletions, truncations, and or amino acid substitutions of peptide P28R. Binding of peptides to P3028 was assayed using PEPSCAN technology. PEPSCAN technology, or “rampo” assays are biochemical binding assays, details of which are provided below:
# A peptide microarray screening technology was used to measure binding of P28R (SEQ ID NO: 2) and variants of P28R to P3028 (SEQ ID NO: 185). In this technology libraries of synthetic peptides are synthesized and covalently linked onto polypropylene microarray chips. The linear peptides were synthesized onto credit-card format polypropylene cards (455 peptide formats/card) as described by (Timmerman et al., 2004) using standard Fmoc-chemistry using hexamethylenediamine (HMDA) as linker and deprotection using trifluoroacetic acid (TFA) with scavengers.
# The binding of His-tagged P3028 to each peptide on the card was tested in an ELISA assay. The 455-well credit card format polypropylene cards containing the covalently linked peptides were incubated with His-tagged P3028 peptide (PGE73) solution consisting of 0.5 μg/mL diluted in blocking solution (4% horse serum, 5% ovalbumin (w/v) in PBS/1% TWEEN reagent). After washing, the peptides were incubated with a monoclonal mouse anti-His-tag antibody (Novagen, 70796-3, diluted 1/1000 in the incubation buffer) and subsequently after washing with a rabbit-anti-mouse antibody peroxidase (Rampo) conjugate (Southern Biotech, 6175-05, diluted 1/1000), for one hour at 25° C. After washing, the peroxidase substrate 2,2′-azine-di-3-ethylbenzthiazoline sulfonate (ABTS) and 2 μL of 3% H2O2 were added. The binding capacity of the mAb was measured as a color development at 405 nm (optical density, OD405). The color development was quantified with a charge-coupled device (CCD)—camera and an image processing system.
# The OD405-values obtained by a CCD-camera was considered as raw data values (“rampo values,” “rampo units,” or “rampo scores”). The values mostly ranged from 0 to 3000, a log scale similar to 1 to 3 of a standard 96-well plate ELISA-reader. First the CCD-camera made a picture of the card before peroxidase coloring and then again a picture after the peroxidase coloring. […] These values were copied into an excel file and labeled as a raw data file. One follow-up manipulation was allowed. Sometimes a well can contain an air-bubble resulting in a false-positive value. If manual inspection of the cards detect an air-bubble the value are set to 0 for that well.
# A library of peptides tested for binding to peptide P3028 included all substitutions for each position of the peptide P28R (SEQ ID NO: 2) (i.e., 19 substitutions for each position). The results of the binding experiments are shown in FIGS. 27, 28, 29 and 30 and Table 5.1. […] P28R had rampo values ranging between 262 and 460 with a mean value of 370. […] In addition, M and S in position 7 (SEQ ID NOs: 9 and 10, respectively), and Q and M in position 11 (SEQ ID NOs: 15 and 16, respectively) all have rampo values over 700.
# For each position of P28R, the rampo scores of the group of 19 different peptides containing an L-amino acid substitution were compared to the rampo score of a control sample P28R peptide (SEQ ID NO: 2) for that group. Single-amino acid substitutions having a rampo score greater than or substantially equivalent to P28R were identified. […]
row,RAMPO Score,Substance
1,260,391 (KKLDTFFVKLSLFTER) [compound 391]

# Same assay, conditions: truncations, deletions, glycine substitutions (FIG. 29, 30)
row,Substance,rampo score / binding to P3028 compared with P28R
1,KKFFVKLSLFTER [SEQ ID NO: 76],"comparable to, or higher than peptide P28R"
2,KKLDTFFVKLSFTER [SEQ ID NO: 68],"comparable to, or higher than peptide P28R"
3,KKLDTFVKLSLFTER [SEQ ID NO: 65],"comparable to, or higher than peptide P28R"
4,KKLTFFVKLSLFTER [SEQ ID NO: 64],"comparable to, or higher than peptide P28R"
